B1: LINE1-full (parent)
chain: UACGUAGGUGGUUUUCCCCUGAUAGUGCUAAGGGGGCCUGGAAGUUUGGACUGGGCAGAGCUCAACACAGCGUGGCAAAGUGGCUGUGGCUAGACUGCCUCUCUGGAUUCCUCGUCACUCAGCAGGGCAUCUCUGAGAGAAAUGCC

This data set covers variants of B1. Put plainly: self-cleavage, relative activity (ratio to wild type); higher = more cleavage; in vitro, sequencing; the parent is a self-cleaving ribozyme.
As for U45G U85G, the self-cleavage was 0.28.

Regarding U45C G126A, the self-cleavage came out at 1.32.

Consider A43U A77G, for which the self-cleavage was found to be 2.1.

In the case of U45C U87C, the self-cleavage came out at 0.23.

In the case of U45C U87A, the self-cleavage is 0.09.

For U45C A124U, the self-cleavage turned out to be 1.58.

As for U45C A124G, the self-cleavage stood at 1.18.

A43U G60A: the self-cleavage worked out at 0.05.

U45C U134A: the self-cleavage was 1.6.

With U45C U134C, the self-cleavage amounted to 1.47.

For U45C U134G, the self-cleavage was determined as 1.22.

As to A43G U47A, the self-cleavage was found to be 0.96.

For the variant U45C U109C, the self-cleavage was 0.61.

Turning to U45C G75A, the self-cleavage amounted to 1.13.

In the case of A43G A138U, the self-cleavage was 1.31.

For U45C A92G, the self-cleavage amounted to 0.08.

In the case of U45A U85A, the self-cleavage was determined as 0.06.

As for U45C G49A, the self-cleavage was found to be 0.77.

For the variant U45C C63U, the self-cleavage is 0.18.

On to U45C C63A, for which the self-cleavage was found to be 0.11.

As for U45G A140G, the self-cleavage was found to be 1.33.

U45A A77G: the self-cleavage is 1.56.

Take A43U G58A: the self-cleavage came out at 0.05.

Regarding A43G G58A, the self-cleavage came to 0.05.

For A43G G126U, the self-cleavage is 1.28.

As for U45A A67G, the self-cleavage is 0.37.

In the case of G44A A121G, the self-cleavage was 1.21.

Regarding U45C G54U, the self-cleavage is 0.11.

On to A43U A59G, for which the self-cleavage is 0.03.

Consider U45C G114A, for which the self-cleavage is 1.48.

With U46A A136U, the self-cleavage was 1.18.

With U45G U96A, the self-cleavage was 0.03.

On to A43U A69U, for which the self-cleavage was 0.05.

As to U45C C95U, the self-cleavage was determined as 0.2.

For G44A C113U, the self-cleavage stood at 1.8.

With U45C A94G, the self-cleavage came to 0.3.

As for U45C A94C, the self-cleavage was found to be 0.04.

Turning to A43G, the self-cleavage came out at 1.21.

For A43U, the self-cleavage is 1.26.

On to U45A A121G, for which the self-cleavage turned out to be 1.88.

U45A A121U: the self-cleavage worked out at 0.99.

For the variant U45A A121C, the self-cleavage stood at 1.62.

For the variant U45C C145U, the self-cleavage is 1.5.

Take G44U U47C: the self-cleavage was 1.45.

For U45A U143A, the self-cleavage was found to be 1.21.

For A43U A78G, the self-cleavage came to 0.61.

In the case of A43U A78C, the self-cleavage turned out to be 2.35.

Turning to U45A A124G, the self-cleavage was 0.41.

U45A G60A: the self-cleavage is 0.03.

Turning to G44A U132C, the self-cleavage amounted to 1.31.

Turning to A43G C146A, the self-cleavage was determined as 1.09.

With G44A U109C, the self-cleavage stood at 1.09.

U45C G125C: the self-cleavage was 1.13.

In the case of U46A G54A, the self-cleavage came out at 0.37.

For U45A U108C, the self-cleavage stood at 1.48.

A43G U132C: the self-cleavage stood at 1.1.

A43G U132A: the self-cleavage amounted to 1.55.

Take A43G U104A: the self-cleavage was 0.42.

For the variant A43U U143C, the self-cleavage is 0.51.

As to A43U U132C, the self-cleavage stood at 1.26.

For U45C A142G, the self-cleavage was 1.26.

For A43U A79U, the self-cleavage amounted to 2.2.

For the variant A43U A79G, the self-cleavage was determined as 0.97.

Turning to A43G G114A, the self-cleavage was determined as 1.05.

With U45A A136G, the self-cleavage is 2.

U45C G80C: the self-cleavage came to 1.8.

For A43G G83A, the self-cleavage turned out to be 1.03.

Turning to U45C U104A, the self-cleavage is 1.43.

As to A43U U100C, the self-cleavage came to 1.75.

Take A43U U100A: the self-cleavage stood at 0.84.

On to U46A A129G, for which the self-cleavage worked out at 1.16.

Regarding A43U G44A, the self-cleavage turned out to be 1.61.

Regarding U45A G137U, the self-cleavage stood at 1.77.

As for G44C U115A, the self-cleavage is 1.77.

Regarding A43U G105A, the self-cleavage stood at 1.21.

As for G44A U134C, the self-cleavage came to 0.92.

Consider G44C, for which the self-cleavage came to 1.22.

With G44A, the self-cleavage came out at 1.21.

As to G44U, the self-cleavage is 1.56.

Regarding U45C C113U, the self-cleavage is 1.15.

For the variant U45C C113A, the self-cleavage was 2.37.

Turning to U45G U102A, the self-cleavage came out at 1.73.

Take U45G C113U: the self-cleavage stood at 0.88.

A43G A92G: the self-cleavage was determined as 0.22.

Turning to U45A U130A, the self-cleavage is 1.38.

Regarding A43G C123U, the self-cleavage is 1.21.

For U45G A59G, the self-cleavage is 0.

For the variant G44U A64G, the self-cleavage was 0.12.

U45C G55A: the self-cleavage came out at 0.27.

Consider U45C G55C, for which the self-cleavage is 0.1.

Take A43G A121G: the self-cleavage came out at 1.12.

For the variant A43G A121U, the self-cleavage stood at 1.23.

Turning to G44A U73C, the self-cleavage was determined as 1.68.

For A43G C128G, the self-cleavage came out at 0.77.

A43U C61U: the self-cleavage was found to be 0.02.

For G44A A141G, the self-cleavage turned out to be 1.42.

Regarding G44U U96G, the self-cleavage was determined as 0.06.

As to U45C A57U, the self-cleavage was found to be 0.11.

As to U45C A57G, the self-cleavage turned out to be 0.7.

Turning to U45C G88A, the self-cleavage amounted to 0.08.

In the case of A43G U108A, the self-cleavage worked out at 0.71.

For the variant U45C G122A, the self-cleavage was found to be 0.81.

Regarding U45C A138U, the self-cleavage worked out at 1.48.

For U45C A138C, the self-cleavage turned out to be 1.44.

On to U45C A138G, for which the self-cleavage worked out at 1.47.

As for A43G U45G, the self-cleavage came to 1.53.

Take U45A U52C: the self-cleavage came out at 1.46.

As for U45A U91A, the self-cleavage stood at 0.46.

Consider U45C U96C, for which the self-cleavage is 0.12.

Take A43G G48A: the self-cleavage is 1.54.

On to G44A U143C, for which the self-cleavage stood at 1.48.

In the case of G44A A138G, the self-cleavage was found to be 1.55.

On to U46A A142U, for which the self-cleavage came to 1.19.

On to A43G G72U, for which the self-cleavage stood at 1.32.

For U45C, the self-cleavage was determined as 1.36.

Consider U45G, for which the self-cleavage was 1.18.

In the case of U45A, the self-cleavage was 1.21.

Regarding A43G A69U, the self-cleavage worked out at 0.08.

A43G A69G: the self-cleavage turned out to be 0.58.

As to U45A A94U, the self-cleavage turned out to be 0.2.

For the variant U45A A94G, the self-cleavage is 0.05.

With U45C C61U, the self-cleavage was found to be 0.09.

A43G U119A: the self-cleavage is 1.15.

Regarding U45C C76A, the self-cleavage worked out at 1.22.

As to U45C A59G, the self-cleavage worked out at 0.1.

As for A43U C98G, the self-cleavage worked out at 0.06.

On to A43G U102G, for which the self-cleavage was found to be 0.84.

In the case of A43G U102A, the self-cleavage amounted to 0.91.

Consider A43G U102C, for which the self-cleavage came to 1.13.

Regarding U45C G74A, the self-cleavage was 1.25.

For A43G U130A, the self-cleavage was found to be 1.51.

On to A43G U130C, for which the self-cleavage is 1.2.

For the variant U45G A64G, the self-cleavage came to 0.24.

As to U45G A78G, the self-cleavage came out at 1.13.

With A43U U119C, the self-cleavage amounted to 1.17.

Turning to A43G U52G, the self-cleavage is 1.64.

As to A43U C99U, the self-cleavage was found to be 0.2.

On to A43G G127U, for which the self-cleavage was found to be 1.87.

U45C A65C: the self-cleavage came to 0.08.

As for U45C U91G, the self-cleavage was found to be 0.

As for U45C U91C, the self-cleavage was 0.69.

As to U45C U91A, the self-cleavage came out at 0.55.

Turning to U45A G114U, the self-cleavage was determined as 1.46.

Take U45C A78G: the self-cleavage worked out at 1.31.

In the case of A43U U96A, the self-cleavage is 0.12.

In the case of U45C G93A, the self-cleavage was found to be 0.07.

Regarding U45G G55C, the self-cleavage stood at 0.08.

Turning to A43G A78C, the self-cleavage was 1.74.

A43G A64C: the self-cleavage is 0.2.

On to A43G U81A, for which the self-cleavage turned out to be 1.68.

As for A43G U81G, the self-cleavage was determined as 1.12.

For the variant G44U A69G, the self-cleavage was 0.66.

As for U45C U62A, the self-cleavage is 0.04.

In the case of U45C U62G, the self-cleavage came out at 0.

On to U45G U87C, for which the self-cleavage is 0.25.

U45C C146U: the self-cleavage was 2.99.

On to U45C C146A, for which the self-cleavage came to 1.56.

With G44A U62C, the self-cleavage is 0.02.

As to A43G A65G, the self-cleavage turned out to be 0.09.

Consider A43G A65C, for which the self-cleavage was determined as 0.

Regarding A43G A65U, the self-cleavage amounted to 0.15.

On to U45A A142G, for which the self-cleavage was 1.55.

Consider U45C C66A, for which the self-cleavage was determined as 0.19.

U45A U134A: the self-cleavage came to 1.11.

For the variant U45A U134C, the self-cleavage worked out at 1.49.

Take U45G U132A: the self-cleavage came out at 0.86.

In the case of U45A A141G, the self-cleavage came out at 1.06.
